Measurements taken from patent US20240018189A1 (PROTAGONIST THERAPEUTICS, published 2024).
Positions of bridges follow the written chain, without caps; N, C: chain ends. Non-standard residues stand in square brackets, D forms with d. Groups on a side chain read outwards from the residue. *: point of attachment. PEG12 = NCCOCCOCCOCCOCCOCCOCCOCCOCCOCCOCCOCCOCCC(=O)O; Phe(3,4-F2) = N[C@@H](Cc1ccc(F)c(F)c1)C(=O)O; Dip = N[C@H](C(=O)O)C(c1ccccc1)c1ccccc1; Palmitoyl = CCCCCCCCCCCCCCCC(=O)*; β3hF = N[C@H](CC(=O)O)Cc1ccccc1; Isovaleryl = CC(C)CC(=O)*; Dap = NC[C@H](N)C(=O)O; Npc = nipecotic acid

T1: human ferroportin (SLC40A1) fused in frame with GFP (human, UniProt Q9NP59 1-571)
T1 sequence (looked up): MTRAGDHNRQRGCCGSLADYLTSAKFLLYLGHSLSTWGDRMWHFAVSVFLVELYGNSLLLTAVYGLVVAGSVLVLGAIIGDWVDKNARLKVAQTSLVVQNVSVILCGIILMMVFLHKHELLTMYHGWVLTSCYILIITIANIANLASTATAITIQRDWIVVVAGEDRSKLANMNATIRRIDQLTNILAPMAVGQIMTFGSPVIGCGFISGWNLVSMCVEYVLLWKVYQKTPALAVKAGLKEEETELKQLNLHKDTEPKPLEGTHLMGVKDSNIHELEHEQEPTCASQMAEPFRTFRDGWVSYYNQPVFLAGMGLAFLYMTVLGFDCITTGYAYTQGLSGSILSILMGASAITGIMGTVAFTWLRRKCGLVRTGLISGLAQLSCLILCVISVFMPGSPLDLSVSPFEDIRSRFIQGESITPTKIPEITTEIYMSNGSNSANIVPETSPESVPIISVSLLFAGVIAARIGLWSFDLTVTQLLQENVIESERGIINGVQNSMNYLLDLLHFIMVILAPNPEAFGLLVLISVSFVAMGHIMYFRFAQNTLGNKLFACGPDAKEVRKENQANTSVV

T2: human ferroportin (SLC40A1) fused in frame with GFP (human) (UniProt Q9NP59)
T2 sequence (looked up): T1 sequence (looked up)


Tests used:
[1] = target: T1, human ferroportin (SLC40A1) fused in …; experiment: cell-based or functional assay
[2] = target: T2, human ferroportin (SLC40A1) fused in frame with GFP (human); experiment: cell-based or functional assay

FPN EC50 [1] | IC50: FPN internalisation [2] | Binder
2.54 nM | – | Isovaleryl-DTH[Dip]PCI[Dap]([Dap-Palmitoyl])[β3hF]C-NH2 (disulfide 6-10 (inferred)) [Compd. ID 1]
– | 6.16 nM | Isovaleryl-DTH[Dip][Npc]CI[dK][Phe(3,4-F2)]K([PEG12-Palmitoyl])KC-NH2 (disulfide 6-12 (inferred)) [Seq. No. 346]
